What was measured:
CsBES1.2-MBP [1] = target: T1, CsBES1.2-MBP (Camellia sinensis (cDNA from cv. …, UniProt UPI0010362774 1-322)); experiment: EMSA; outcompeted by unlabeled probe; stronger than P1 per text; Beyotime Chemiluminescent EMSA Kit; 6.5% polyacrylamide gel, 60 V 65 min; binding buffer, salt, pH and temperature not stated; conditions: protein: recombinant; tags: MBP (pMAL-c5x); label: 5' biotin (probe); blunt
T1 sequence: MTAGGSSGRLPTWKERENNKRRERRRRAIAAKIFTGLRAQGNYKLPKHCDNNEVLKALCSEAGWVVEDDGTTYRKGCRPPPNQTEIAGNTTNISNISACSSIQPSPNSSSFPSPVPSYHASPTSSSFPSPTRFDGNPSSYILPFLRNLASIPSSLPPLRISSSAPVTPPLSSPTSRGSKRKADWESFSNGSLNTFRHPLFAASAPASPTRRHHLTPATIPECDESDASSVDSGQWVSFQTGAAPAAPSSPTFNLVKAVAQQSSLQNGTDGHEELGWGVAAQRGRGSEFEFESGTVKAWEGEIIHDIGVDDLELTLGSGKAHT

CsBES1.2-MBP [2] = target: T1, CsBES1.2-MBP; experiment: EMSA; weaker than P2 E-box probe per text; Beyotime Chemiluminescent EMSA Kit; 6.5% polyacrylamide gel, 60 V 65 min; binding buffer, salt, pH and temperature not stated; conditions: protein: recombinant; tags: MBP (pMAL-c5x); label: 5' biotin (probe); blunt
CsBES1.2-MBP [3] = target: T1, CsBES1.2-MBP; experiment: competition; unlabeled mutant vs biotin-P2 probe; did not outcompete; Beyotime Chemiluminescent EMSA Kit; 6.5% polyacrylamide gel, 60 V 65 min; binding buffer, salt, pH and temperature not stated; conditions: protein: recombinant; tags: MBP (pMAL-c5x); label: unlabeled; blunt

B1: CsEXL3 promoter P2 (E-box) probe (dsDNA)
DNA 1: TGAATCCCACGTGTGCAGAACT
DNA 2: AGTTCTGCACACGTGGGATTCA
binding result (CsBES1.2-MBP [1]): binds

B2: CsEXL3 promoter P1 (BRRE-box) probe (dsDNA)
DNA 1: GCGAGGCGACGAGGCGGAGG
DNA 2: CCTCCGCCTCGTCGCCTCGC
binding result (CsBES1.2-MBP [2]): binds

B3: Mutant CsEXL3 promoter P2 competitor (dsDNA)
DNA 1: TGAATCCAAAAAATGCAGAACT
DNA 2: AGTTCTGCATTTTTTGGATTCA
binding result (CsBES1.2-MBP [3]): no binding
